Biological target: the molecule itself
Assay: cryo-EM structure

B1: human neutral amino acid transporter ASCT2 (natural protein)
chain: MVADPPRDSKGLAAAEPTANGGLALASIEDQGAAAGGYCGSRDQVRRCLRANLLVLLTVVAVVAGVALGLGVSGAGGALALGPERLSAFVFPGELLLRLLRMIILPLVVCSLIGGAASLDPGALGRLGAWALLFFLVTTLLASALGVGLALALQPGAASAAINASVGAAGSAENAPSKEVLDSFLDLARNIFPSNLVSAAFRSYSTTYEERNITGTRVKVPVGQEVEGMNILGLVVFAIVFGVALRKLGPEGELLIRFFNSFNEATMVLVSWIMWYAPVGIMFLVAGKIVEMEDVGLLFARLGKYILCCLLGHAIHGLLVLPLIYFLFTRKNPYRFLWGIVTPLATAFGTSSSSATLPLMMKCVEENNGVAKHISRFILPIGATVNMDGAALFQCVAAVFIAQLSQQSLDFVKIITILVTATASSVGAAGIPAGGVLTLAIILEAVNLPVDHISLILAVDWLVDRSCTVLNVEGDALGAGLLQNYVDRTESRSTEPELIQVKSELPLDPLPVPTEEGNPLLKHYRGPAGDATVASEKESVM
For B1, the “stoichiometry N” value was 3.

Source: PMC11297037 (Nature Communications, 2024)
